Results on 3 molecules are retold here after patent publication US20220017622A1 (Pfizer, published 2022).

In experiment [1] the target is T1, human CD3 on primary human T cells (human, UniProt P07766 23-207; P04234 22-171).
T1 construct: whole, on cells; On cells the whole CD3/TCR complex is present
The experiment is described as follows: flow cytometry on primary human T cells, 37 C.

Experiment [2] concerns the target T2, human B7-H4 on cells (human, UniProt Q7Z7D3 25-282).
T2 construct: whole, on cells; Tumour cell lines with endogenous B7-H4 or HEK293 transfected with human B7-H4
T2 sequence (looked up): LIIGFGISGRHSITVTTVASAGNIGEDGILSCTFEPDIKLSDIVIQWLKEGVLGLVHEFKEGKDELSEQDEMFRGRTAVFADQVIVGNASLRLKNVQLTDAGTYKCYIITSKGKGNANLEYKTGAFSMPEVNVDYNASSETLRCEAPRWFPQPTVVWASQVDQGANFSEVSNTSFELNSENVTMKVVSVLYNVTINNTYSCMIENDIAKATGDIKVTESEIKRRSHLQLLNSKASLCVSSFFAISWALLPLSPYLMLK
Description: flow cytometry on MX-1 cells, 37 C.

For experiment [3], the target named is T2, human B7-H4 on cells. The experiment is described as follows: cell-based or functional assay.
Experiment [4] addresses T3, human CD3 (delta/epsilon heterodimer) (human, UniProt P07766 23-126; P04234 22-105).
T3 construct: captured on an anti-His chip, so it carries a His tag; also called huCD3
Description: SPR 25 C; CD3 delta/epsilon on anti-His chip, bispecific analyte.

Experiment [5] addresses T4, cyno CD3 (delta/epsilon heterodimer) (cyno, UniProt Q95LI5 22-117; Q95LI8 22-105).
T4 construct: also called cyCD3
The description is as above.

Experiment [6] addresses T3, human CD3 (delta/epsilon heterodimer). The experiment is described as follows: SPR 37 C; CD3 delta/epsilon on anti-His chip, bispecific analyte.
The target of experiment [7] is T4, cyno CD3 (delta/epsilon heterodimer). The description is as above.

T3 sequence (P07766 23-126, stated change not applied, chain 1 of 2): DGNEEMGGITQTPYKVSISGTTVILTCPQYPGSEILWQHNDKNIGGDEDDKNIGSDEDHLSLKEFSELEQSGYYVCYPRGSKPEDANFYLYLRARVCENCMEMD
T3 sequence (P04234 22-105, stated change not applied, chain 2 of 2): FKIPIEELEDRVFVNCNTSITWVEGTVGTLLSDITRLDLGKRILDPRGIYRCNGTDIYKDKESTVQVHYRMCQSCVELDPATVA
T4 sequence (Q95LI5 22-117, stated change not applied, chain 1 of 2): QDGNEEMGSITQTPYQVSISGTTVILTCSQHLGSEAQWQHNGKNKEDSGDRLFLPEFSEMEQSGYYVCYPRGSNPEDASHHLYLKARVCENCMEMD
T4 sequence (Q95LI8 22-105, stated change not applied, chain 2 of 2): as the sequence (P04234 22-105, stated change not applied, chain 2 of 2) above, with I5V, N15K, I20V, S32T, D33N, I34N, T64A, S74N, V83L counted along it
T1 sequence (P07766 23-207, chain 1 of 2): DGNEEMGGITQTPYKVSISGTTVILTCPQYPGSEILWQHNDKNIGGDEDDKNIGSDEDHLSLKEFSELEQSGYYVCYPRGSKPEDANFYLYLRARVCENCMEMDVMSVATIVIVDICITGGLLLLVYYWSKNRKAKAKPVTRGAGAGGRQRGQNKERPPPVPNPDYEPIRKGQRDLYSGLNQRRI
T1 sequence (P04234 22-171, chain 2 of 2): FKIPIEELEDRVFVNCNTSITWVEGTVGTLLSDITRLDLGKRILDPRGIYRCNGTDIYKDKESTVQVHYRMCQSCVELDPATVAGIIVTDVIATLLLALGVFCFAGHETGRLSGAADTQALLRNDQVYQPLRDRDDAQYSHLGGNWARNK

B1: B7-H4xCD3 bispecific antibody 1168 (bispecific antibody, IgG2)
heavy 1: EVQLLESGGGLVQPGGSLRLSCAASGFTFSSYAMSWVRQAPGKGLEWVSAISGGGGSTYYADSVKGRFTISRDNSKNTLYLQMNSLRAEDTAVYYCARDIQWYGESTLFDYWGQGTLVTVSSASTKGPSVFPLAPCSRSTSESTAALGCLVKDYFPEPVTVSWNSGALTSGVHTFPAVLQSSGLYSLSSVVTVPSSNFGTQTYTCNVDHKPSNTKVDKTVERKCEVECPECPAPPVAGPSVFLFPPKPKDTLMISRTPEVTCVVVAVSHEDPEVQFNWYVDGVEVHNAKTKPREEQFNSTFRVVSVLTVVHQDWLNGKEYKCKVSNKGLPSSIEKTISKTKGQPREPQVYTLPPSREEMTKNQVSLTCEVKGFYPSDIAVEWESNGQPENNYKTTPPMLDSDGSFFLYSKLTVDKSRWQQGNVFSCSVMHEALHNHYTQKSLSLSPG
light 1: DIQMTQSPSSLSASVGDRVTITCRASQSTRSWLAWYQQKPGKAPKLLIYKASSLESGVPSRFSGSGSGTDFTLTISSLQPEDFATYYCQQYGSYSRTFGQGTKVEIKRTVAAPSVFIFPPSDEQLKSGTASVVCLLNNFYPREAKVQWKVDNALQSGNSQESVTEQDSKDSTYSLSSTLTLSKADYEKHKVYACEVTHQGLSSPVTKSFNRGEC
heavy 2: EVQLVESGGGLVQPGGSLRLSCAASGFTFSDYYMTWVRQAPGKGLEWVAFIRNQARGYTSDHNPSVKGRFTISRDNAKNSLYLQMNSLRAEDTAVYYCARDRPSYYVLDYWGQGTTVTVSSASTKGPSVFPLAPCSRSTSESTAALGCLVKDYFPEPVTVSWNSGALTSGVHTFPAVLQSSGLYSLSSVVTVPSSNFGTQTYTCNVDHKPSNTKVDKTVERKCRVRCPRCPAPPVAGPSVFLFPPKPKDTLMISRTPEVTCVVVAVSHEDPEVQFNWYVDGVEVHNAKTKPREEQFNSTFRVVSVLTVVHQDWLNGKEYKCKVSNKGLPSSIEKTISKTKGQPREPQVYTLPPSREEMTKNQVSLTCLVKGFYPSDIAVEWESNGQPENNYKTTPPMLDSDGSFFLYSRLTVDKSRWQQGNVFSCSVMHEALHNHYTQKSLSLSPGK
light 2: DIQMTQSPSSLSASVGDRVTITCTSSQSLFNVRSQKNYLAWYQQKPGKAPKLLIYWASTRESGVPSRFSGSGSGTDFTLTISSLQPEDFATYYCKQSYDLFTFGGGTKVEIKRTVAAPSVFIFPPSDEQLKSGTASVVCLLNNFYPREAKVQWKVDNALQSGNSQESVTEQDSKDSTYSLSSTLTLSKADYEKHKVYACEVTHQGLSSPVTKSFNRGEC
notes: Chains 1-2: B7-H4 arm; chains 3-4: CD3 arm; IgG2
For the molecule B1, the concentration for a half-maximal effect (EC50) in experiment [1] amounted to 5.56 nM. This molecule yielded an EC50 in the experiment with human B7-H4 on cells [2] of 13.1 nM. In the experiment with human B7-H4 on cells [3], the “T cell mediated tumor cell killing EC50, HCC1954-Luc” value stood at 2160 nM; the “T cell mediated tumor cell killing, OVCAR3-Luc” value stood at 360; the “T cell mediated tumor cell killing, T47D” value was found to be 1910.

B2: B7-H4xCD3 bispecific antibody 0068 (bispecific antibody, IgG2)
heavy 1: EVQLLESGGGLVQPGGSLRLSCAASGFTFSSYAMSWVRQAPGKGLEWVSAISGGGGSTYYADSVKGRFTISRDNSKNTLYLQMNSLRAEDTAVYYCARDIQWFGESTLFDYWGQGTLVTVSSASTKGPSVFPLAPCSRSTSESTAALGCLVKDYFPEPVTVSWNSGALTSGVHTFPAVLQSSGLYSLSSVVTVPSSNFGTQTYTCNVDHKPSNTKVDKTVERKCEVECPECPAPPVAGPSVFLFPPKPKDTLMISRTPEVTCVVVAVSHEDPEVQFNWYVDGVEVHNAKTKPREEQFNSTFRVVSVLTVVHQDWLNGKEYKCKVSNKGLPSSIEKTISKTKGQPREPQVYTLPPSREEMTKNQVSLTCEVKGFYPSDIAVEWESNGQPENNYKTTPPMLDSDGSFFLYSKLTVDKSRWQQGNVFSCSVMHEALHNHYTQKSLSLSPGK
light 1: DIQLTQSPSTLSASVGDRVTITCRASQSIRSWLAWFQQKPGKAPKLLIYKASSLEGGVPSRFSGSGSGTEFTLTISSLQPDDFATYYCQQYNSYSRTFGQGTKVEIKRTVAAPSVFIFPPSDEQLKSGTASVVCLLNNFYPREAKVQWKVDNALQSGNSQESVTEQDSKDSTYSLSSTLTLSKADYEKHKVYACEVTHQGLSSPVTKSFNRGEC
heavy 2: EVQLVESGGGLVQPGGSLRLSCAASGFTFSDYYMTWVRQAPGKGLEWVAFIRNQARGYTSDHNPSVKGRFTISRDNAKNSLYLQMNSLRAEDTAVYYCARDRPSYYVLDYWGQGTTVTVSSASTKGPSVFPLAPCSRSTSESTAALGCLVKDYFPEPVTVSWNSGALTSGVHTFPAVLQSSGLYSLSSVVTVPSSNFGTQTYTCNVDHKPSNTKVDKTVERKCRVRCPRCPAPPVAGPSVFLFPPKPKDTLMISRTPEVTCVVVAVSHEDPEVQFNWYVDGVEVHNAKTKPREEQFNSTFRVVSVLTVVHQDWLNGKEYKCKVSNKGLPSSIEKTISKTKGQPREPQVYTLPPSREEMTKNQVSLTCLVKGFYPSDIAVEWESNGQPENNYKTTPPMLDSDGSFFLYSRLTVDKSRWQQGNVFSCSVMHEALHNHYTQKSLSLSPGK
light 2: DIQMTQSPSSLSASVGDRVTITCTSSQSLFNVRSQKNYLAWYQQKPGKAPKLLIYWASTRESGVPSRFSGSGSGTDFTLTISSLQPEDFATYYCKQSYDLFTFGGGTKVEIKRTVAAPSVFIFPPSDEQLKSGTASVVCLLNNFYPREAKVQWKVDNALQSGNSQESVTEQDSKDSTYSLSSTLTLSKADYEKHKVYACEVTHQGLSSPVTKSFNRGEC
notes: Chains 1-2: B7-H4 arm; chains 3-4: CD3 arm; IgG2 EEE/RRR; also called anti-B7-H4 clone 37D4
As for B2, in experiment [4], the affinity, expressed as Kd, was 13.2 nM; the off-rate (koff) worked out at 0.00553 s⁻¹; the kon was determined as 420000 M⁻¹ s⁻¹. In experiment [5], the affinity, expressed as Kd, was 13.5 nM; the koff was 0.00506 s⁻¹; the association rate constant (kon) was determined as 374000 M⁻¹ s⁻¹. In experiment [6], this molecule displayed a dissociation constant Kd of 63 nM, an off-rate constant (koff) of 0.0349 s⁻¹ and a kon of 554000 M⁻¹ s⁻¹. For the same molecule, in experiment [7], the Kd was determined as 69 nM, the off-rate constant (koff) stood at 0.0349 s⁻¹ and the kon was 506000 M⁻¹ s⁻¹. In the experiment with human B7-H4 on cells [3], the “T cell mediated tumor cell killing EC50, HCC1954-Luc” value worked out at 284 nM; the “T cell mediated tumor cell killing, MDA-MB-468” value came out at 332; the “T cell mediated tumor cell killing, OVCAR3-Luc” value amounted to 79; the “T cell mediated tumor cell killing, T47D” value is 566.

B3: B7-H4xCD3 bispecific antibody 0999 (bispecific antibody, IgG2)
heavy 1: EVQLLESGGGLVQPGGSLRLSCAASGFTFSSYAMSWVRQAPGKGLEWVSAISGGGGSTYYADSVKGRFTISRDNSKNTLYLQMNSLRAEDTAVYYCARDIQWYGESTLFDYWGQGTLVTVSSASTKGPSVFPLAPCSRSTSESTAALGCLVKDYFPEPVTVSWNSGALTSGVHTFPAVLQSSGLYSLSSVVTVPSSNFGTQTYTCNVDHKPSNTKVDKTVERKCEVECPECPAPPVAGPSVFLFPPKPKDTLMISRTPEVTCVVVAVSHEDPEVQFNWYVDGVEVHNAKTKPREEQFNSTFRVVSVLTVVHQDWLNGKEYKCKVSNKGLPSSIEKTISKTKGQPREPQVYTLPPSREEMTKNQVSLTCEVKGFYPSDIAVEWESNGQPENNYKTTPPMLDSDGSFFLYSKLTVDKSRWQQGNVFSCSVMHEALHNHYTQKSLSLSPG
light 1: DIQLTQSPSTLSASVGDRVTITCRASQSIRSWLAWFQQKPGKAPKLLIYKASSLEGGVPSRFSGSGSGTEFTLTISSLQPDDFATYYCQQYNSYSRTFGQGTKVEIKRTVAAPSVFIFPPSDEQLKSGTASVVCLLNNFYPREAKVQWKVDNALQSGNSQESVTEQDSKDSTYSLSSTLTLSKADYEKHKVYACEVTHQGLSSPVTKSFNRGEC
heavy 2: EVQLVESGGGLVQPGGSLRLSCAASGFTFSDYYMTWVRQAPGKGLEWVAFIRNQARGYTSDHNPSVKGRFTISRDNAKNSLYLQMNSLRAEDTAVYYCARDRPSYYVLDYWGQGTTVTVSSASTKGPSVFPLAPCSRSTSESTAALGCLVKDYFPEPVTVSWNSGALTSGVHTFPAVLQSSGLYSLSSVVTVPSSNFGTQTYTCNVDHKPSNTKVDKTVERKCRVRCPRCPAPPVAGPSVFLFPPKPKDTLMISRTPEVTCVVVAVSHEDPEVQFNWYVDGVEVHNAKTKPREEQFNSTFRVVSVLTVVHQDWLNGKEYKCKVSNKGLPSSIEKTISKTKGQPREPQVYTLPPSREEMTKNQVSLTCLVKGFYPSDIAVEWESNGQPENNYKTTPPMLDSDGSFFLYSRLTVDKSRWQQGNVFSCSVMHEALHNHYTQKSLSLSPGK
light 2: DIQMTQSPSSLSASVGDRVTITCTSSQSLFNVRSQKNYLAWYQQKPGKAPKLLIYWASTRESGVPSRFSGSGSGTDFTLTISSLQPEDFATYYCKQSYDLFTFGGGTKVEIKRTVAAPSVFIFPPSDEQLKSGTASVVCLLNNFYPREAKVQWKVDNALQSGNSQESVTEQDSKDSTYSLSSTLTLSKADYEKHKVYACEVTHQGLSSPVTKSFNRGEC
notes: as for B1
In turn, B3 showed an EC50 in experiment [1] of 9.77 nM. Also, the EC50 with human B7-H4 on cells [2] came out at 3.9 nM. For the same molecule, in the experiment with human B7-H4 on cells [3], the “T cell mediated tumor cell killing EC50, HCC1954-Luc” value worked out at 277 nM; the “T cell mediated tumor cell killing, OVCAR3-Luc” value was determined as 90; the “T cell mediated tumor cell killing, T47D” value is 258.

As a reminder, the EC50 is the midpoint of the concentration-response curve. Higher therefore signals a need for much substance. The Kd is a measure of binding affinity in units of concentration. What is called koff is the first-order rate constant of dissociation. A word on the kon: it is a measure of how fast the partners come together. Low values mean slower complex formation, high ones faster complex formation.
